Values quoted from earlier work in article PMC11820823.

Assays:
EphA8 Sam (Mus musculus) = EphA8 Sam (Mus musculus) (UniProt O09127); experiment: ITC
EphA2 Sam (Homo sapiens) = EphA2 Sam (Homo sapiens) (UniProt P29317)
EphA2 Sam (Mus musculus) = EphA2 Sam (Mus musculus) (UniProt Q03145)
EphA2 Sam (Mus musculus), sequence (Q03145 902-972): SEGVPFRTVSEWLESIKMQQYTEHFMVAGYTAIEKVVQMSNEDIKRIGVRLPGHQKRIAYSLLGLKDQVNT

EphA8 Sam (Mus musculus), sequence (O09127 926-996): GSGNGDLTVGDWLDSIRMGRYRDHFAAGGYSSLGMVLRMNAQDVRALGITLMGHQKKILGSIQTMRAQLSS
SASH1 SH3-Sam1, sequence (P59808 547-690): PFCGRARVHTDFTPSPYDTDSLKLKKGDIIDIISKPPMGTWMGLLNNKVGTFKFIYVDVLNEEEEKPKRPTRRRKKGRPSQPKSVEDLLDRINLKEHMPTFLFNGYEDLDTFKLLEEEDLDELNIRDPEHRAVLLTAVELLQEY
EphA2 Sam (Homo sapiens), sequence (P29317 901-971): as the sequence (Q03145 902-972) above, with V27A, S40T, E42D counted along it
SASH1 Sam1, sequence (P59808 623-693): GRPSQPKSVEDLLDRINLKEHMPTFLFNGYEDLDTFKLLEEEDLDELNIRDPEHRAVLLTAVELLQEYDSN
Ship2 Sam, sequence (O15357 1193-1258): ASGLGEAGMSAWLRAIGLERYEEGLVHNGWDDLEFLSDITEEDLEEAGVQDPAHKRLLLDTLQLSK

Kd (EphA8 Sam (Mus musculus)) [nM]	Kd (EphA2 Sam (Homo sapiens)) [nM]	Kd (EphA2 Sam (Mus musculus)) [nM]	Substance
880	–	–	SASH1 Sam1 (from UniProt P59808)
–	750	–	Ship2 Sam (from UniProt O15357)
1090	–	2520	SASH1 SH3-Sam1 (from UniProt P59808)
